Laboratory results from paper PMC6511404 (Biochemistry, 2019).

Target: the molecule itself
Test: SEC

B1: recombinant N-terminal cleavable His-tagged E. coli enolase (enzyme)
chain: MSKIVKIIGREIIDSRGNPTVEAEVHLEGGFVGMAAAPSGASTGSREALELRDGDKSRFLGKGVTKAVAAVNGPIAQALIGKDAKDQAGIDKIMIDLDGTENKSKFGANAILAVSLANAKAAAAAKGMPLYEHIAELNGTPGKYSMPVPMMNIINGGEHADNNVDIQEFMIQPVGAKTVKEAIRMGSEVFHHLAKVLKAKGMNTAVGDEGGYAPNLGSNAEALAVIAEAVKAAGYELGKDITLAMDCAASEFYKDGKYVLAGEGNKAFTSEEFTHFLEELTKQYPIVSIEDGLDESDWDGFAYQTKVLGDKIQLVGDDLFVTNTKILKEGIEKGIANSILIKFNQIGSLTETLAAIKMAKDAGYTAVISHRSGETEDATIADLAVGTAAGQIKTGSMSRSDRVAKYNQLIRIEEALGEKAPYNGRKEIKGQA
stoichiometry N: 2
